Consider one substance from paper PMC11432383.

The target in assay [1] is SyMRP, MoxR AAA+ ATPase of Synechococcus sp. strain NKBG15041c, with a His-tag at the C-terminus (Synechococcus sp. strain NKBG15041c). The experiment in a line: AUC; sedimentation velocity, 2.0 mg/mL SyMRP, 50 mM Tris-HCl pH 8.0, 200 mM NaCl, with 1 mM ATP, 25 °C, 60,000 rpm, interference optics, SEDFIT.
Assay [2] shares this target. Kind of assay: SEC; HPLC gel filtration column SB-804HQ, 50 mM Tris-HCl pH 7.5, 0.1 mM EDTA, 150 mM NaCl, 0.5 mL/min; mass from marker proteins (apparent).
The target is the same in assay [3]. The experiment in a line: AUC; sedimentation velocity, 2.0 mg/mL SyMRP, 50 mM Tris-HCl pH 8.0, 200 mM NaCl, without ATP, 25 °C, 60,000 rpm, interference optics, SEDFIT.
Assay [4] has the same target. The assay is described as above. The source holds these as a separate data set.
The target is the same in assay [5]. Kind of assay: atomic force microscopy; high-speed AFM, sample on Ni2+-coated mica, washed with 50 mM Tris-HCl pH 7.5.
The target is the same in assay [6]. Kind of assay: negative-stain transmission electron microscopy; carbon-coated copper grids, 2.5% uranyl acetate, 50,000x, 100 kV.

“SyMRP, MoxR AAA+ ATPase of Synechococcus sp. strain NKBG15041c, with a His-tag at the C-terminus (enzyme)”: the weight fraction w of the 4.26 S component (small oligomer) in assay [1] was determined as 2.6%. For the same substance, the weight fraction w of the 7.53 S component (main component) in assay [1] was found to be 90.9%. Besides, the stoichiometry N turned out to be 6 in assay [2]; 2 in assay [3]; 6 in assay [4]; 6 in assay [5]; 6 in assay [6]. The weight fraction w of the 4.18 S component (small oligomer) in assay [4] came out at 4%. In assay [4], this substance had a weight fraction w of the 7.60 S component (hexamer) of 91.4%.
